PMC10099770
Numbering of substitutions follows the chain as printed. Names and notes keep the numbering of the source.

T1: 14-3-3, P63104
T1 chain: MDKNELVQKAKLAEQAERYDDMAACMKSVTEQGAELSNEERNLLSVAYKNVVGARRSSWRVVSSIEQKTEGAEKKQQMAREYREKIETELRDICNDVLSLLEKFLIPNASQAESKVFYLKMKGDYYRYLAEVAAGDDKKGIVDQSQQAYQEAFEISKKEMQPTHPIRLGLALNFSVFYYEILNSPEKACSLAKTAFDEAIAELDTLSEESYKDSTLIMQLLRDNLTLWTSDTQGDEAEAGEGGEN

B1: FLAG-TNK1, Q13470 S502A (protein)
chain: MLPEAGSLWLLKLLRDIQLAQFYWPILEELNVTRPEHFDFVKPEDLDGIGMGRPAQRRLSEALKRLRSGPKSKNWVYKILGGFAPEHKEPTLPSDSPRHLPEPEGGLKCLIPEGAVCRGELLGSGCFGVVHRGLWTLPSGKSVPVAVKSLRVGPEGPMGTELGDFLREVSVMMNLEHPHVLRLHGLVLGQPLQMVMELAPLGSLHARLTAPAPTPPLLVALLCLFLRQLAGAMAYLGARGLVHRDLATRNLLLASPRTIKVADFGLVRPLGGARGRYVMGGPRPIPYAWCAPESLRHGAFSSASDVWMFGVTLWEMFSGGEEPWAGVPPYLILQRLEDRARLPRPPLCSRALYSLALRCWAPHPADRPSFSHLEGLLQEAGPSEACCVRDVTEPGALRMETGDPITVIEGSSSFHSPDSTIWKGQNGRTFKVGSFPASAVTLADAGGLPATRPVHRGTPARGDQHPGSIDGDRKKANLWDAPPARGQRRNMPLERMKGISRALESVLSLGPRPTGGGSSPPEIRQARAVPQGPPGLPPRPPLSSSSPQPSQPSRERLPWPKRKPPHNHPMGMPGARKAAALSGGLLSDPELQRKIMEVELSVHGVTHQECQTALGATGGDVVSAIRNLKVDQLFHLSSRSRADCWRILEHYQWDLSAASRYVLARP
B2: FLAG-TNK1, Q13470 S68A (protein)
chain: B1 chain with S68A, A502S
B3: FLAG-TNK1, Q13470 S434A (protein)
chain: B1 chain with S434A, A502S
B4: FLAG-TNK1, Q13470 T91A (protein)
chain: B1 chain with T91A, A502S
B5: FLAG-TNK1, Q13470 T392A (protein)
chain: B1 chain with T392A, A502S

Key:
[1] = biological target: FLAG-AKAP13 T2467A (UniProt Q12802); assay: co-IP; FLAG construct precipitated from transfected HEK293T lysate on anti-DYKDDDDK resin or DYKDDDDK Fab-Trap agarose, 1 hour at 4 °C; lysis buffer 10 mM HEPES KOH pH 7.5, 150 mM KCl, 0.01% IGEPAL with protease and phosphatase inhibitors; washed with PBS three times; immunoblot for 14-3-3
[2] = biological target: T1, 14-3-3, P63104; assay: co-immunoprecipitation (IP: FLAG) with immunoblot quantification; conditions: chain shown with the change; HEK293T cells; 3 biological replicates; parent: est. 1.0; read off a plot

UniProt Q12802, sequence (Q12802 whole entry T2467A): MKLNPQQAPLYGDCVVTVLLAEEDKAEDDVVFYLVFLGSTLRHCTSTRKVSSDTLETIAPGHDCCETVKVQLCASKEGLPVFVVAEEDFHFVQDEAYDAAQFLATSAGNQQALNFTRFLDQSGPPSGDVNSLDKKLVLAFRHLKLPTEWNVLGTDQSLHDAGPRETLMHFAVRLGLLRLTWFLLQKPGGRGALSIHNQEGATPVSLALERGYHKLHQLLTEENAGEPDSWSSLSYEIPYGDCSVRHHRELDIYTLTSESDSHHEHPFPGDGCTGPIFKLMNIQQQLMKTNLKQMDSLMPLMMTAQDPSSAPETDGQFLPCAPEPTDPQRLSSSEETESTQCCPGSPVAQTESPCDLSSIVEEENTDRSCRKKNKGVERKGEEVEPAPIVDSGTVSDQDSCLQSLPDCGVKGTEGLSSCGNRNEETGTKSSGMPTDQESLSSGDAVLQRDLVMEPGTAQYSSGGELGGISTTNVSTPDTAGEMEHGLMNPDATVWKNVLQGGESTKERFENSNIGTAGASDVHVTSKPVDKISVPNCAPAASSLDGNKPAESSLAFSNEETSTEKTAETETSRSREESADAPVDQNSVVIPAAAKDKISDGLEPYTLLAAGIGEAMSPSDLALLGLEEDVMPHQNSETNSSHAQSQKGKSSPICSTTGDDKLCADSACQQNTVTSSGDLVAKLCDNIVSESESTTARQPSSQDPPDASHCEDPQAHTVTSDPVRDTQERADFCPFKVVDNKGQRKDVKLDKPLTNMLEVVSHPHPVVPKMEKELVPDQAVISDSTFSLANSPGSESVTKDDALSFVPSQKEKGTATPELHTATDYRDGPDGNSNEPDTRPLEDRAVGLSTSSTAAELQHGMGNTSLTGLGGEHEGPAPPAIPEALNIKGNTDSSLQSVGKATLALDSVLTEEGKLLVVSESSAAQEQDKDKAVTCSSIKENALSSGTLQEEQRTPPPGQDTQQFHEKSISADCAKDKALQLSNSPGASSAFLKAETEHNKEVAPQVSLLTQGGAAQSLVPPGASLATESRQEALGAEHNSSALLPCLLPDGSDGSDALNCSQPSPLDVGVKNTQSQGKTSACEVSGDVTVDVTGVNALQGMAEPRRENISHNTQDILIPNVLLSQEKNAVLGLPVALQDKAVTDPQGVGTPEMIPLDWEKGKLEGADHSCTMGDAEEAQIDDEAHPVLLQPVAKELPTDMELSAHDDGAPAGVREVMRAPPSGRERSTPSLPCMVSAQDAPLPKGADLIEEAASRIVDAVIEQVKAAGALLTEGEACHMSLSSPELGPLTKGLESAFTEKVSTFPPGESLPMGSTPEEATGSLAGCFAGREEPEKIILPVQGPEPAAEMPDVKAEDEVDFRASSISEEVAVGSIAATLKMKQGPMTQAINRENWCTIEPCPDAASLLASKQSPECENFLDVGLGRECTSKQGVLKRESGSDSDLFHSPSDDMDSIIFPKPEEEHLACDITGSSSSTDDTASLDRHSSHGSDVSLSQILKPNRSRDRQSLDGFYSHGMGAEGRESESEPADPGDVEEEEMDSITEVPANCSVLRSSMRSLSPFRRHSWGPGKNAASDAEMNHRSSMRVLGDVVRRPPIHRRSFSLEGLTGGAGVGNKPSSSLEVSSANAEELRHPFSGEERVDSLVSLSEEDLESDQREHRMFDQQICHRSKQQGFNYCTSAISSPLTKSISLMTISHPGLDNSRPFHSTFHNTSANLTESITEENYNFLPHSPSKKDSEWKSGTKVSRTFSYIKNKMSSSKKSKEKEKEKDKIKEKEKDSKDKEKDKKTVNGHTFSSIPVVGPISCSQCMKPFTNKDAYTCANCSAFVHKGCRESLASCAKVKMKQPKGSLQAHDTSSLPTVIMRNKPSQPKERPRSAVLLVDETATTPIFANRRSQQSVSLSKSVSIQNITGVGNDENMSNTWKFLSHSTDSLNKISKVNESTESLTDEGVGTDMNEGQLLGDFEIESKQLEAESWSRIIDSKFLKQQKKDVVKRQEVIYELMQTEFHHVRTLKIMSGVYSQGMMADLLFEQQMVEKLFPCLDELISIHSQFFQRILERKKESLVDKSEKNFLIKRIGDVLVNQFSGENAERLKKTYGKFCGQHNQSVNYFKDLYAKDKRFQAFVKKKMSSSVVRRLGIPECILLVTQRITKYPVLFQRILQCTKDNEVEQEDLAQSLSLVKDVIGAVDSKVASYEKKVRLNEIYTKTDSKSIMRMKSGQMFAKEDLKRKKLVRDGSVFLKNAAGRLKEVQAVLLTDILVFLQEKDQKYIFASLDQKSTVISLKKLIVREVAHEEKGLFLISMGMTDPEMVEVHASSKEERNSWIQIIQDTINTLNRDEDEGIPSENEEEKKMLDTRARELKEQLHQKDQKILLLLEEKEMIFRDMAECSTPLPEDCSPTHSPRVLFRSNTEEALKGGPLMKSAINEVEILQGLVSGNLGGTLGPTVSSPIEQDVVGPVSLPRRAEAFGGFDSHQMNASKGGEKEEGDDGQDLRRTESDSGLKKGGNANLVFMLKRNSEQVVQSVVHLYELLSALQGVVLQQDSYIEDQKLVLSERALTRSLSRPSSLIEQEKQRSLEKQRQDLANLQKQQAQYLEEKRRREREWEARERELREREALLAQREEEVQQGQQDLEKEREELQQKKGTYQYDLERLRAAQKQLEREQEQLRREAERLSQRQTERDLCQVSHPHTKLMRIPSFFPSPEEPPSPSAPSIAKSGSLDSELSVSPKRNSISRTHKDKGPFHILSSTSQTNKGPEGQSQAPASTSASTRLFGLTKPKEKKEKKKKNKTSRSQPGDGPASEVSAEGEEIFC

| Molecule | loss of co-precipitated 14-3-3 against wild-type AKAP13 [1] | ratio to parent [2] |
| --- | --- | --- |
| 14-3-3 (from UniProt P63104 1-245) (natural protein) | > 50% |  |
| B1 |  | 0.14 |
| B2 |  | 0.8 |
| B3 |  | 0.88 |
| B4 |  | 0.84 |
| B5 |  | 0.67 |
